Substitutions are numbered along the chain they refer to.

Holding throughout (experiment): cell_activity; 3T40 transposition in E. coli T5 vs 3T3/WT
Common to all, as to details: chain copies: 2

One series deals with T1, Mos-1 transposase ET (Drosophila mauritiana, UniProt Q7JQ07 SEQ:1-345, E137K,T216A).
T1 sequence: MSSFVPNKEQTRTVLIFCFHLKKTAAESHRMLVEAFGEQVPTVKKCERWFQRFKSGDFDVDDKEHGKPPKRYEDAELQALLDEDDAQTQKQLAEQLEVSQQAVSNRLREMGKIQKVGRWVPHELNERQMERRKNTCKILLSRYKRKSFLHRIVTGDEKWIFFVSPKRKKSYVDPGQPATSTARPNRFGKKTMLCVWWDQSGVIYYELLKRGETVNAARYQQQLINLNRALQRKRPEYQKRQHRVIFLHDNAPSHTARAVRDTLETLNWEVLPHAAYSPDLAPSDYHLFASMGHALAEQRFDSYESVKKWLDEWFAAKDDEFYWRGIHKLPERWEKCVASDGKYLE
How it is done: (§1) Escherichia coli JM109 bacteria were co-transformed with the pBC 3T3 plasmid (comprising a transposition reporter 2 ITR 3′ mariner-like element and the chloramphenicol resistance gene) and with the inducible vector encoding for the transposase (pKK-Tnp or pMal-Tnp) comprising the ampicillin resistance gene. The bacteria selection was performed on ampicillin (100 μg/ml) and chloramphenicol in order to verify the presence of the two plasmids.
(§2) The JM109 bacteria containing both the pBC 3T3 plasmid and the pKK-Tnp (or pMalC2X-Tnp) plasmid were placed in culture for 1 hr at 37° C. in 250 μl of LB. This inoculum was then poured into 5 ml of LB supplemented with 1 mM IPTG. The culture was titrated on LB plates (100 μl of a 1/1000 dilution) and on LB-Tet plates (12.5 μg/ml) (250 μl of the non-diluted culture). The culture induced by IPTG was then cultured for 5 hours at 32° C. (optimal temperature of transposase) under stirring (250 rpm). The bacterial suspension was then titrated on LB plates (100 μl of a 1/250,000 dilution) and on LB-tet plates (100 μl of the undiluted bacterial suspension). The plates were placed at 37° C. overnight. The following day, the colonies were counted on LB and LB-Tet plates, and the transposition frequency (equal to the number of tetracycline bacteria over the number of bacterial per 1 ml of undiluted bacterial suspension) was calculated.
(§3) In order to evaluate the transposition efficiency of systems associating a hyperactive transposase and a pseudo-transposon that is also hyperactive, various combinations were tested in the transposition test in bacteria described in part I, paragraph I-B above.

The next series has as its target T2, Mos-1 transposase QY (Drosophila mauritiana, UniProt Q7JQ07 SEQ:1-345, Q91R,Y237C).
T2 sequence: T1 sequence with Q91R, K137E, A216T, Y237C
How it is done: as §1, §2, §3

Another series has as its target T3, Mos-1 transposase FQ (Drosophila mauritiana, UniProt Q7JQ07 SEQ:1-345, F53Y,Q91R).
T3 sequence: T1 sequence with F53Y, Q91R, K137E, A216T
As to the method: as §1, §2, §3

The target of the next series is T4, Mos-1 transposase FTY (Drosophila mauritiana, UniProt Q7JQ07 SEQ:1-345, F53Y,T216A,Y237C).
T4 sequence: T1 sequence with F53Y, K137E, Y237C
As to the method:
as §1, §2, §3

For the next series, the target named is T5, Mos-1 transposase TY (Drosophila mauritiana, UniProt Q7JQ07 SEQ:1-345, T216A,Y237C).
T5 sequence: T1 sequence with K137E, Y237C
As to the method:
as §1, §2, §3

B1: ITR40 (dsDNA)
DNA 1: TCAGGTGTACAAGTATGTAATGTCGTTA
DNA 2: TAACGACATTACATACTTGTACACCTGA
Regarding B1, the activity with Mos-1 transposase ET was found to be 8.9 fold; in the series with Mos-1 transposase QY it was 1.3 fold; in the series with Mos-1 transposase FQ it was 2.5 fold; with Mos-1 transposase FTY, 2.4 fold; with Mos-1 transposase TY, 36.2 fold.

(Values after US20100291682, “SYSTEM FOR TRANSPOSING HYPERACTIVE RECOMBINANT DERIVATIVES OF MOS-1 TRANSPOSON” (published 2010).)
